Results from paper PMC3689846.

B1: 12A12 (mature) (antibody, V domains shown)
VH: SQHLVQSGTQVKKPGASVRISCQASGYSFTDYVLHWWRQAPGQGLEWMGWIKPVYGARNYARRFQGRINFDRDIYREIAFMDLSGLRSDDTALYFCARDGSGDDTSWHLDPWGQGTLVIVSA
VL: DIQMTQSPSSLSASVGDRVTITCQAGQGIGSSLQWYQQKPGKAPKLLVHGASNLHRGVPSRFSGSGFHTTFSLTISGLQRDDFATYFCAVLEFFGPGTKVEIK
B2: NIH45-46 (mature) (antibody, V domains shown)
VH: QVRLSQSGGQMKKPGESMRLSCRASGYEFLNCPINWIRLAPGRRPEWMGWLKPRGGAVNYARKFQGRVTMTRDVYSDTAFLELRSLTSDDTAVYFCTRGKYCTARDYYNWDFEHWGRGAPVTVSS
VL: EIVLTQSPATLSLSPGETAIISCRTSQSGSLAWYQQRPGQAPRLVIYSGSTRAAGIPDRFSGSRWGADYNLSISNLESGDFGVYYCQQYEFFGQGTKVQVD

How the values were obtained:
[1] = biological target: Core.BaL-GT1 (germline-targeting variant of core gp120) (HIV-1 strain BaL (from the name)); experiment: SPR
[2] = biological target: eOD-GT1 (HIV-1 strain HxB2); experiment: SPR

Binder | Kd [1] [nM] | Kd [2] [nM]
B1 | 1 | –
B2 | – | 3
